Molecular target: T1, transferrin receptor (TfR) (human, UniProt P02786 1-760)
T1 construct: whole, on cells; also called 100 and 200 kDa proteins
Experiment: immunoprecipitation of surface-biotinylated 293 cell proteins with HFE or FLAG antibodies
Protocol: Cell surface protein biotinylations. Cells (4×10⁶) were seeded into 100 mm dishes and grown overnight to 80% confluency. The plates were moved to 4° C. and gently washed four times with PBS. Suflo-NHS-LC Biotin (Pierce) was added in PBS to a final concentration of 500 g/ml and incubated on ice for 30 mins. The Biotin reagent was removed and the plates washed 4 times with PBS containing 50 mM glycine. Cells were lysed in 500 ml of 25 mM Tris-HCL, pH 7.5 150 mM NaCl plus 0.5% NP-40. […] Precipitated proteins were separated on 4-20% Tris-glycine polyacrylamide gels (Novex), electroblotted to PVDF membranes (Novex) and biotinylated proteins were visualized with 2 μg/ml of streptavidin-HRP (Pierce) followed by ECL detection reagents (Amersham).
Biotinylated proteins were detected with streptavidin-conjugated horseradish peroxidase (HRP).

T1 sequence (P02786 whole entry): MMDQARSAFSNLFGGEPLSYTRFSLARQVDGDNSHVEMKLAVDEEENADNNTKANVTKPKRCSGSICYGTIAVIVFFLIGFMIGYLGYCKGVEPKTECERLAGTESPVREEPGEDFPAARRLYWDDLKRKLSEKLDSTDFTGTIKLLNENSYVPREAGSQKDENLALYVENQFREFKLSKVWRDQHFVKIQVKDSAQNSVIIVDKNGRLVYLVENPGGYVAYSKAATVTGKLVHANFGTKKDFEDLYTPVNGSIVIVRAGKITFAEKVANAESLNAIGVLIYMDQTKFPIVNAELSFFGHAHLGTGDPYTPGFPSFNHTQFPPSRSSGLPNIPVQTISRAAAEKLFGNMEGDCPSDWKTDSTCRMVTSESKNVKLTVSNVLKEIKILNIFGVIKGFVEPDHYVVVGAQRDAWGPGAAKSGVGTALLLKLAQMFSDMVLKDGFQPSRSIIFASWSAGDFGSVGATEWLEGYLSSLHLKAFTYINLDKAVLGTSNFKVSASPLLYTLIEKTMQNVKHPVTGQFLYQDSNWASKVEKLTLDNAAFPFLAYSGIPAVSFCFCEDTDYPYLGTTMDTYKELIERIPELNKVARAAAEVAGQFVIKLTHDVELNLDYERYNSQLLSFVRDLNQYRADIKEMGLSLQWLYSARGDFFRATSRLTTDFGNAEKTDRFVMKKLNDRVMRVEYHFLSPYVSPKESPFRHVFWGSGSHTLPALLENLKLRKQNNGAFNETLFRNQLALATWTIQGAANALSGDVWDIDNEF

binding result: no binding
B1: C282Y HFE mutant over-expressed in 293 cells (other, UniProt Q30201 23-348, looked up)
MHC heavy: RLLRSHSLHYLFMGASEQDLGLSLFEALGYVDDQLFVFYDHESRRVEPRTPWVSSRISSQMWLQLSQSLKGWDHMFTVDFWTIMENHNHSKESHTLQVILGCEMQEDNSTEGYWKYGYDGQDHLEFCPDTLDWRAAEPRAWPTKLEWERHKIRARQNRAYLERDCPAQLQQLLELGRGVLDQQVPPLVKVTHHVTSSVTTLRCRALNYYPQNITMKWLKDKQPMDAKEFEPKDVLPNGDGTYQGWITLAVPPGEEQRYTYQVEHPGLDQPLIVIWEPSPSGTLVIGVISGIAVFVVILFIGILFIILRKRQGSRGAMGHYVLAERE
notes: also called C282Y mutant
